Values of other authors, collected in PMC2910649.

Target: VEGFR2 (Homo sapiens) (UniProt P35968)
UniProt P35968, sequence (P35968 20-1356): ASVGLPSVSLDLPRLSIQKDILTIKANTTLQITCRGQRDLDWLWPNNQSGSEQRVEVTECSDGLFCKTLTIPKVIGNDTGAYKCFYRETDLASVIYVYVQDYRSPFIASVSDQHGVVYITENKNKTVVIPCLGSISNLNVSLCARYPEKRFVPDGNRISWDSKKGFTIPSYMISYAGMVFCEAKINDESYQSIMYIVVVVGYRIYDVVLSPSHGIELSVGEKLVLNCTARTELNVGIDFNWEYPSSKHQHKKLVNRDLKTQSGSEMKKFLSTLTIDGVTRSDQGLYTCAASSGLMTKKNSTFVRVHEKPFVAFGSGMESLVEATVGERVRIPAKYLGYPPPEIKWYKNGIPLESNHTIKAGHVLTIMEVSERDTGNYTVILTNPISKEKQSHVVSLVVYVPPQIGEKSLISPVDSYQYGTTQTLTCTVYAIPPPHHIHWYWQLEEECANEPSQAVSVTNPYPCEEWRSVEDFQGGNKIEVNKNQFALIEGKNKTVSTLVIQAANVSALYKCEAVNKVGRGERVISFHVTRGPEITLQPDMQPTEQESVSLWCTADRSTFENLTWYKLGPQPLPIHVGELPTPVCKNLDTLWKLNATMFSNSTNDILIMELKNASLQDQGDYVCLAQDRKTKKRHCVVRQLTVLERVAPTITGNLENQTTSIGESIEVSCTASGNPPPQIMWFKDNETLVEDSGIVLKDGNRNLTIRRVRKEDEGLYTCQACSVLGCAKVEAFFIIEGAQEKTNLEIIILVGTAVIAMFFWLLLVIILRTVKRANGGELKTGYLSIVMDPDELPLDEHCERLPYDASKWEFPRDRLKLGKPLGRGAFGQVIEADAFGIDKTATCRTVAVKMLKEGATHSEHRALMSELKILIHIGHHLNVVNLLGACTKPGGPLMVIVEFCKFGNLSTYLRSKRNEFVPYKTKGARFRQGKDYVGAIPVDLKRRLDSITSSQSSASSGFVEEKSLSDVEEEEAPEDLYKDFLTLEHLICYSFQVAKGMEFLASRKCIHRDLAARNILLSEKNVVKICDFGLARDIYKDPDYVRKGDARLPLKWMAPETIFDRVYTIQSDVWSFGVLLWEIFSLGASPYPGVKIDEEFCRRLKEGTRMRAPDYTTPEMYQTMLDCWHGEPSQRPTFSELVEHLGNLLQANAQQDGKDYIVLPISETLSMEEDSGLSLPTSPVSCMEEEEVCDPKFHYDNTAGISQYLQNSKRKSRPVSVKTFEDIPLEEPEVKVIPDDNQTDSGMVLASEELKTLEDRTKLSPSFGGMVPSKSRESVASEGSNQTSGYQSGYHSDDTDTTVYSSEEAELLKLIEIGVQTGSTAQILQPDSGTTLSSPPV

Substance: VEGF-A165 (from UniProt P15692)
- Kd: 210 pM
